Here are results for 66 substances from the array DNA melting data of Ke et al..

The series in a line: melting temperature; melt of duplexes. To be noted: sodium 0.0675 M; strand 1 µM.
For the substance “CGACGTGCTTCATGTGCTG+CAGCACATCAAGCACGTCG ((((((((((.((((((((+)))))))).))))))))))”, the Tm turned out to be 53.3 °C.
Regarding “CGACGTGCTTGATGTGCTG+CAGCACATGCTGCACGTCG ((((((((...((((((((+))))))))...))))))))”, the Tm stood at 48.1 °C.
Then “CGACGTGCGCAATGTGCTG+CAGCACATTTCGCACGTCG (((((((((.(((((((((+))))))))).)))))))))”, with 57.5 °C; and “CGACGTGCGGCATGTGCTG+CAGCACATCATGCACGTCG ((((((((...((((((((+))))))))...))))))))”, with 51.2 °C; and “CGACGTGCGATATGTGCTG+CAGCACATGCAGCACGTCG ((((((((...((((((((+))))))))...))))))))”, with 53.6 °C.
For the substance “CGACGTGCGTTATGTGCTG+CAGCACATATCGCACGTCG (((((((((.(((((((((+))))))))).)))))))))”, the Tm came to 56.5 °C.
For the substance “CGACGTGCATGATGTGCTG+CAGCACATGGCGCACGTCG ((((((((...((((((((+))))))))...))))))))”, the Tm was 48.1 °C.
Under “CGACGTGCCCCATGTGCTG+CAGCACATGTGGCACGTCG (((((((((.(((((((((+))))))))).)))))))))” stands 58.8 °C; under “CGACGTGCCGCATGTGCTG+CAGCACATGGGGCACGTCG (((((((((.(((((((((+))))))))).)))))))))”, 62.6 °C.
Then “CGACGTGCTCGATGTGCTG+CAGCACATGGGGCACGTCG ((((((((.(.((((((((+)))))))).).))))))))”, with 54.5 °C.
Regarding “CGACGTGCGTCATGTGCTG+CAGCACATAATGCACGTCG ((((((((.(.((((((((+)))))))).).))))))))”, the Tm was 52.2 °C.
Under “CGACGTGCTGGATGTGCTG+CAGCACATTTGGCACGTCG ((((((((...((((((((+))))))))...))))))))” stands 51.8 °C; under “CGACGTGCTTGATGTGCTG+CAGCACATGCAGCACGTCG (((((((((..((((((((+))))))))..)))))))))”, 51.8 °C; under “CGACGTGCTTGATGTGCTG+CAGCACATTGTGCACGTCG ((((((((...((((((((+))))))))...))))))))”, 47.2 °C.
Then “CGACGTGCAAAATGTGCTG+CAGCACATCAGGCACGTCG ((((((((...((((((((+))))))))...))))))))”, with 49.4 °C; and “CGACGTGCTGCATGTGCTG+CAGCACATCCGGCACGTCG ((((((((.(.((((((((+)))))))).).))))))))”, with 51.9 °C.
Regarding “CGACGTGCTGTATGTGCTG+CAGCACATACTGCACGTCG ((((((((.((((((((((+)))))))))).))))))))”, the Tm came out at 57.8 °C.
Under “CGACGTGCACTATGTGCTG+CAGCACATCGAGCACGTCG ((((((((.(.((((((((+)))))))).).))))))))” stands 46.7 °C; under “CGACGTGCGGGATGTGCTG+CAGCACATTATGCACGTCG ((((((((...((((((((+))))))))...))))))))”, 51.8 °C; under “CGACGTGCTCCATGTGCTG+CAGCACATATAGCACGTCG (((((((((..((((((((+))))))))..)))))))))”, 50.4 °C.
Under “CGACGTGCCTGATGTGCTG+CAGCACATGGGGCACGTCG (((((((((..((((((((+))))))))..)))))))))” stands 56.4 °C; under “CGACGTGCACTATGTGCTG+CAGCACATCACGCACGTCG ((((((((...((((((((+))))))))...))))))))”, 43.3 °C.
Under “CGACGTGCCGAATGTGCTG+CAGCACATCCCGCACGTCG ((((((((.(.((((((((+)))))))).).))))))))” stands 49.6 °C; under “CGACGTGCTTCATGTGCTG+CAGCACATACCGCACGTCG ((((((((...((((((((+))))))))...))))))))”, 47.3 °C.
Consider “CGACGTGCGTAATGTGCTG+CAGCACATTCTGCACGTCG ((((((((..(((((((((+)))))))))..))))))))”, for which the Tm is 53.4 °C.
With “CGACGTGCTAAATGTGCTG+CAGCACATCCTGCACGTCG ((((((((...((((((((+))))))))...))))))))”, the Tm was 49 °C.
Turning to “CGACGTGCGAAATGTGCTG+CAGCACATATTGCACGTCG ((((((((.(.((((((((+)))))))).).))))))))”, the Tm was 51.9 °C.
Consider “CGACGTGCCAAATGTGCTG+CAGCACATTGGGCACGTCG (((((((((.(((((((((+))))))))).)))))))))”, for which the Tm was determined as 59.5 °C.
Turning to “CGACGTGCACAATGTGCTG+CAGCACATTAGGCACGTCG ((((((((..(((((((((+)))))))))..))))))))”, the Tm came to 50.6 °C.
Then “CGACGTGCCATATGTGCTG+CAGCACATCTGGCACGTCG ((((((((((.((((((((+)))))))).))))))))))”, with 57.1 °C.
Under “CGACGTGCGCTATGTGCTG+CAGCACATGGTGCACGTCG ((((((((.(.((((((((+)))))))).).))))))))” stands 54.6 °C; under “CGACGTGCCAGATGTGCTG+CAGCACATAGGGCACGTCG (((((((((..((((((((+))))))))..)))))))))”, 55.8 °C; under “CGACGTGCTGAATGTGCTG+CAGCACATAGCGCACGTCG ((((((((...((((((((+))))))))...))))))))”, 48.3 °C.
Under “CGACGTGCATAATGTGCTG+CAGCACATCAGGCACGTCG ((((((((.(.((((((((+)))))))).).))))))))” stands 50.2 °C; under “CGACGTGCCACATGTGCTG+CAGCACATAGCGCACGTCG ((((((((...((((((((+))))))))...))))))))”, 48.5 °C.
Regarding “CGACGTGCCGCATGTGCTG+CAGCACATGACGCACGTCG ((((((((..(((((((((+)))))))))..))))))))”, the Tm is 51.2 °C.
Then “CGACGTGCCGAATGTGCTG+CAGCACATTAAGCACGTCG ((((((((..(((((((((+)))))))))..))))))))”, with 52.3 °C.
“CGACGTGCCTGATGTGCTG+CAGCACATTTGGCACGTCG (((((((((..((((((((+))))))))..)))))))))”: the Tm stood at 55.6 °C.
Under “CGACGTGCAATATGTGCTG+CAGCACATAAGGCACGTCG ((((((((..(((((((((+)))))))))..))))))))” stands 51.9 °C; under “CGACGTGCGCCATGTGCTG+CAGCACATACTGCACGTCG ((((((((...((((((((+))))))))...))))))))”, 48.2 °C.
Then “CGACGTGCGAGATGTGCTG+CAGCACATCCCGCACGTCG (((((((((.(((((((((+))))))))).)))))))))”, with 60.3 °C; and “CGACGTGCTACATGTGCTG+CAGCACATGGAGCACGTCG (((((((((.(((((((((+))))))))).)))))))))”, with 61.7 °C.
Take “CGACGTGCGGGATGTGCTG+CAGCACATTCCGCACGTCG ((((((((((.((((((((+)))))))).))))))))))”: the Tm stood at 62.8 °C.
With “CGACGTGCCAAATGTGCTG+CAGCACATCAAGCACGTCG ((((((((...((((((((+))))))))...))))))))”, the Tm was found to be 49.3 °C.
Then “CGACGTGCCGCATGTGCTG+CAGCACATGGTGCACGTCG ((((((((..(((((((((+)))))))))..))))))))”, with 52 °C; and “CGACGTGCAGAATGTGCTG+CAGCACATTCAGCACGTCG ((((((((.((((((((((+)))))))))).))))))))”, with 57.9 °C.
Under “CGACGTGCCCTATGTGCTG+CAGCACATGCAGCACGTCG ((((((((...((((((((+))))))))...))))))))” stands 49.7 °C; under “CGACGTGCTGAATGTGCTG+CAGCACATGGTGCACGTCG ((((((((...((((((((+))))))))...))))))))”, 50.9 °C; under “CGACGTGCCCGATGTGCTG+CAGCACATCTTGCACGTCG ((((((((..(((((((((+)))))))))..))))))))”, 52.5 °C.
On to “CGACGTGCCTTATGTGCTG+CAGCACATGAGGCACGTCG ((((((((((.((((((((+)))))))).))))))))))”, for which the Tm is 59.4 °C.
With “CGACGTGCGTGATGTGCTG+CAGCACATATAGCACGTCG ((((((((...((((((((+))))))))...))))))))”, the Tm amounted to 52.5 °C.
Under “CGACGTGCCGTATGTGCTG+CAGCACATTGCGCACGTCG ((((((((...((((((((+))))))))...))))))))” stands 49.3 °C.
Then “CGACGTGCCGGATGTGCTG+CAGCACATCCTGCACGTCG ((((((((.((((((((((+)))))))))).))))))))”, with 58.9 °C; and “CGACGTGCTAAATGTGCTG+CAGCACATCGTGCACGTCG ((((((((...((((((((+))))))))...))))))))”, with 44.7 °C.
Then “CGACGTGCGTTATGTGCTG+CAGCACATGGAGCACGTCG ((((((((...((((((((+))))))))...))))))))”, with 54.8 °C; and “CGACGTGCTTTATGTGCTG+CAGCACATTGAGCACGTCG (((((((((..((((((((+))))))))..)))))))))”, with 52 °C.
“CGACGTGCTCAATGTGCTG+CAGCACATATAGCACGTCG (((((((((..((((((((+))))))))..)))))))))”: the Tm came to 51.5 °C.
For “CGACGTGCTGGATGTGCTG+CAGCACATTACGCACGTCG ((((((((...((((((((+))))))))...))))))))”, the Tm is 51.1 °C.
For “CGACGTGCTCGATGTGCTG+CAGCACATAGTGCACGTCG ((((((((.(.((((((((+)))))))).).))))))))”, the Tm stood at 49.8 °C.
For “CGACGTGCGCGATGTGCTG+CAGCACATCCGGCACGTCG ((((((((..(((((((((+)))))))))..))))))))”, the Tm is 55 °C.
Turning to “CGACGTGCTGGATGTGCTG+CAGCACATGGAGCACGTCG (((((((((..((((((((+))))))))..)))))))))”, the Tm stood at 53.2 °C.
Regarding “CGACGTGCAGTATGTGCTG+CAGCACATATGGCACGTCG ((((((((..(((((((((+)))))))))..))))))))”, the Tm was 52.7 °C.
Then “CGACGTGCGAGATGTGCTG+CAGCACATTTAGCACGTCG ((((((((.(.((((((((+)))))))).).))))))))”, with 53.3 °C; and “CGACGTGCGCCATGTGCTG+CAGCACATGTGGCACGTCG ((((((((..(((((((((+)))))))))..))))))))”, with 54.1 °C.
Then “CGACGTGCTCGATGTGCTG+CAGCACATCCTGCACGTCG ((((((((..(((((((((+)))))))))..))))))))”, with 53 °C; and “CGACGTGCATGATGTGCTG+CAGCACATGTCGCACGTCG ((((((((...((((((((+))))))))...))))))))”, with 48.8 °C.
